Reference: paper PMC5023229, “Role of NAD^+-Dependent Malate Dehydrogenase in the Metabolism of Methylomicrobium alcaliphilum 20Z and Methylosinus trichosporium OB3b” (Microorganisms, 2015)

Experiments:
Test in all cases: purified protein
purified protein [1] = substrate: NC(=O)C1=CN([C@@H]2O[C@H](COP(=O)(O)OP(=O)(O)OC[C@H]3O[C@@H](n4cnc5c(N)ncnc54)[C@H](O)[C@@H]3O)[C@@H](O)[C@H]2O)C=CC1; format: biochemical, Methylotuvimicrobium alcaliphilum; conditions: oxaloacetate reduction, co-substrate oxaloacetate, pH 10, 30 °C, varied: cofactor
purified protein [2] = substrate: O=C(O)CC(=O)C(=O)O; format: biochemical, Methylotuvimicrobium alcaliphilum; conditions: oxaloacetate reduction, co-substrate NADH, pH 10, 30 °C
purified protein [3] = substrate: NC(=O)c1ccc[n+]([C@@H]2O[C@H](COP(=O)(O)OP(=O)(O)OC[C@H]3O[C@@H](n4cnc5c(N)ncnc54)[C@H](O)[C@@H]3O)[C@@H](O)[C@H]2O)c1; format: biochemical, Methylotuvimicrobium alcaliphilum; conditions: malate oxidation, co-substrate malate, pH 10, 30 °C, varied: cofactor
purified protein [4] = substrate: O=C(O)C[C@H](O)C(=O)O; conditions: malate oxidation, co-substrate NAD+
purified protein [5] = substrate: NC(=O)C1=CN([C@@H]2O[C@H](COP(=O)(O)OP(=O)(O)OC[C@H]3O[C@@H](n4cnc5c(N)ncnc54)[C@H](O)[C@@H]3O)[C@@H](O)[C@H]2O)C=CC1; format: biochemical, Methylosinus trichosporium; conditions: oxaloacetate reduction, co-substrate oxaloacetate, pH 9.5, 30 °C, varied: cofactor
purified protein [6] = substrate: O=C(O)CC(=O)C(=O)O; format: biochemical, Methylosinus trichosporium; conditions: oxaloacetate reduction, co-substrate NADH, pH 9.5, 30 °C
purified protein [7] = substrate: NC(=O)c1ccc[n+]([C@@H]2O[C@H](COP(=O)(O)OP(=O)(O)OC[C@H]3O[C@@H](n4cnc5c(N)ncnc54)[C@H](O)[C@@H]3O)[C@@H](O)[C@H]2O)c1; format: biochemical, Methylosinus trichosporium; conditions: malate oxidation, co-substrate malate, pH 9.5, 30 °C, varied: cofactor

B1: MDH from M. alcaliphilum 20Z (MDH-20Z) (Methylotuvimicrobium alcaliphilum 20Z) (protein)
chain: MKTPVKIAVTGAAGQISYSLLFRLASGELLGPDQPMIFHLLETPQALALGALNGVVMELNDCAYPLLHKIVTTDDPDVAFKDVDYAFLIGASPRKPGMERKDLLAINAQIFSVQGQALSKVASRDVKVLVTGNPANTNALIAISNAPDLRPENFSAMMMLDHKRATFQLADKCGVLSNDIKNIIIWGNHSAGQYPDLHHAKVKGQDALSLVEWDWFVDKFIPTVQQRGAVVIQAVGRSSAASAANAALNLMRNWVFGTDEGNWISMAVPSDGSYGIEKDLVYSFPVEIKNGEISIVQGLEISDFSREKMRKSEAELKEEREAVKHLL
notes: full-length, C-terminal His6 (pET22b NdeI/XhoI), E. coli BL21 (DE3), Ni-NTA; homodimer 70 kDa
Purified protein [1]
  Km: 25.2 ± 0.4 µM
Purified protein [2]
  Km: 340 ± 30 µM
  kcat: 870 s⁻¹
Purified protein [3]
  Km: 450 ± 80 µM
Purified protein [4]; pH 10, 30 °C, pH 10.0
  Km: 110 ± 10 µM
  kcat: 621 s⁻¹

B2: MDH from M. trichosporium OB3b (MDH-OB3b) (Methylosinus trichosporium OB3b) (protein)
chain: MARKKIALIGAGNIGGTLAHLIGLKELGDIVLFDIAAGVPQGKALDLAQSSPVSGFDATISGADDYSAIAGADVVIVTAGVPRQPGMSRDDLLSVNLGVVSKVGAGIKTYAPDAFVICITNPLDVMVWALQKCSGLPPAKVVGMAGVLDSARFRYFLAEELQVSVEDVSAFVLGGHGDDMVPSVRYSTVAGVPLPDLVGMGWITQAKIDAIVERTRKGGGEIVSLLKTGSAYYAPAASAIAMAESYLKDKRRVLPCAAHLSGQYGVSDLYVGVPVVIGANGVERIVEISLDSAERQMFDKSVASVRTLIAASKALDPSFA
notes: full-length, C-terminal His6 (pET22b NdeI/XhoI), E. coli BL21 (DE3), Ni-NTA; homotetramer 140 kDa; forward primer encodes (M)MARKKIA; LDH-like MDH, group III
Purified protein [4]; pH 9.5, 30 °C, pH 9.5
  Km: 1280 ± 170 µM
  kcat: 516 s⁻¹
Purified protein [5]
  Km: 37.6 ± 4.6 µM
Purified protein [6]
  Km: 59 ± 7 µM
  kcat: 1141 s⁻¹
Purified protein [7]
  Km: 330 ± 40 µM
